Experimental data: paper PMC10013841
pEC50, pKd: −log10 of the molar value.

Columns and labels:
[1] = molecular target: SARS-CoV-2 Spike glycoprotein (Omicron), trimeric, HEK293-produced (SARS-CoV-2) (UniProt P0DTC2); test: ITC
[2] = molecular target: SARS-CoV-2 Spike glycoprotein (WH-1), trimeric, HEK293-produced (S1+S2) (SARS-CoV-2) (UniProt P0DTC2); test: ITC
[3] = molecular target: baculovirus-produced trimeric Spike (SARS-CoV-2) (UniProt P0DTC2); test: ITC
[4] = molecular target: SARS-CoV-2 Spike glycoprotein (WH-1), trimeric, HEK293-produced (S1+S2) (SARS-CoV-2) (UniProt P0DTC2); test: ELISA

cyanovirin-N, sequence (P81180 whole entry): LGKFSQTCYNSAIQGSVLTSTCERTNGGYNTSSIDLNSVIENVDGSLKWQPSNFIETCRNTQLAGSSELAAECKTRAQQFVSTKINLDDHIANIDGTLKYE

## cyanovirin-N (from UniProt P81180 1-101) (natural protein)
[1]
  pKd: 7.81
  stoichiometry N (CV-N per Spike monomer): 2
[2]
  pKd: 7.55
  stoichiometry N (CV-N per Spike monomer): 2
[3]
  pKd: 7.87
  stoichiometry N (CV-N per Spike monomer): 2.4
[4]
  pEC50: 8.54
